The test system of one test is HLS-5. Briefly: Confocal microscopy of HLS-5 localisation in COS7 cells. The format is cell-based. The text has this:
(A) Confocal microscopy of COS7 cells co-expressing Myc-tagged HLS-5 and GFP-SUMO-1. HLS-5 was detected with anti-Myc antibodies in conjunction with red secondary antibodies and SUMO-1 detected by green fluorescent. (B) Confocal microscopy of COS7 cells co-expressing Myc-tagged HLS-5 and GATA-1. GATA-1 was detected with an anti-GATA-1 antibody and HLS-5 was detected with anti-Myc antibodies in conjunction with red and green fluorescent secondary antibodies respectively. (C) Confocal microscopy of COS7 cells co-expressing myc-tagged HLS-5 in the presence of MG132. HLS-5 was detected with anti-Myc antibodies in conjunction with red fluorescent secondary antibodies
(§1) Also, COS7 cells co-expressing Myc-tagged HLS-5 or a mutant form of HLS-5 lacking its Ring finger (ΔN61) and HA-tagged SUMO1 were analysed in the presence or absence of MG132.
As HLS-5 is located principally within cytoplasmic granules, the effects of Ubc9, PIAS1, MG-132 and SUMO-1 on HLS-5 compartmentalization were investigated. […] However, when the SUMO-1 and HLS-5 were co-expressed, there was a remarkable increase in the amount of HLS5 appearing in the nucleus (FIG. 3A). Therefore SUMO1 promoted translocation of HLS-5 from cytoplasmic granules into the nucleus.

A further test has as its system Hela cells. In words: HLS5-induced apoptosis in co-transfected Hela cells. The format is cell-based, human. Conditions: HLS5 alone or co-transfected with the named protein. The text has this: To examine the biological effects of Ubc9, PIAS1 and SUMO-1 on HLS5-induced apoptosis, COS cells and HeLa cells were co-transfected with these molecules and cell death monitored. […] However, the effects of SUMO-1 on cell death induced by HLS5 were less pronounced.

Test [1] addresses T1, Ubc9 (Homo sapiens, UniProt P63279).
T1 construct: expressed in transfected cells; host or cells: yeast (two-hybrid)
Briefly: Yeast two-hybrid binding of HLS-5 to Ubc9. Conditions: yeast 2 hybrid, β-galactosidase filter assay. Here is the method:
(§2) (A) Full length Ubc9 was examined for binding to various HLS-5 constructs as shown using yeast two-hybrid. Binding was measured by filter assay for β-galactosidase activity. (B) BRET assay of COS7 cells expressing HLS-5. Rluc fusion protein with increasing amounts of GFP-Ubc9 fusion protein. Results presented as BRET ratio. (C) PIAS1 (aa 303-651) fragment isolated from the Y2H screen was assessed for binding to various HLS-5 constructs as shown using yeast two-hybrid. Binding was measured by filter assay for β-galactosidase activity. (D) Lysates from COS7 cells transfected with Myc-tagged HLS-5, HA-tagged PIAS1 and/or GATA-1 were immunoprecipitated (IP) with anti-Myc antibodies and immunoblotted (IB) with antibodies to HA or Myc in the presence and/or absence of NEM/IAA.
A yeast two-hybrid screen for HLS-5 interacting partners identified two proteins involved in the sumoylation pathway viz Ubc9 and PIAS1.
The interaction between HLS-5 and Ubc9 was characterized further by yeast 2 hybrid assays to define important binding domains. […] To confirm that HLS-5 and Ubc9 were genuine binding partners, the interaction was investigated in mammalian cells using bioluminescence resonance energy transfer (BRET), which is able to detect protein:protein interactions in living cells (Xu et al., 1999, Proc Natl Acad Sci USA, 96, 151-156). […]

In test [2] the test system is Ubc9. In words: Immunoblot of Ubc9 levels in COS cells co-expressing HLS-5. The format is cell-based. Conditions: co-expression, FIG. 5B. The text has this:
(§3) (A) Hela cells co-expressing Myc-tagged HLS-5 and HA-tagged PIAS1. PIAS1 was detected with an anti-HA antibody and HLS-5 was detected as a GFP fusion protein in conjunction with red and green fluorescent secondary antibodies respectively. (B) COS7 cells transfected with GFP-tagged HLS-5 and/or HA-tagged PIAS1, UBC9 or SUMO-1 and immunoblotted (IB) with antibodies to HA. (C) Lysates from COS7 cells transfected with Different Myc-tagged HLS-5 deletion constructs and HA-tagged-PIAS1, and GFP-tagged Histone 2B as a transfection/Loading control. Samples were immunoblotted (IB) with antibodies to GFP, HA and Myc.
(§4) To investigate whether HLS-5 was a functional E3 ligase, SUMO-1 and HLS-5 were co-expressed in COS cells and total protein sumoylation ascertained by immunoblotting. […] We then investigated which domain of HLS-5 was involved in the elimination of PIAS1 protein expression. […] Thus, HLS-5 altered global protein SUMOylation and reduced intracellular content of SUMO-1, PIAS1 and Ubc9, key components of the SUMOylation machinery and this action is accomplished partly through its B Box & Coiled Coil domain.
(In general: Immunoblotting shows a protein as a band on a membrane.)

The test system of test [3] is SUMO-1. In words: Immunoblot of SUMO-1 levels in COS cells co-expressing HLS-5. Conditions: SUMO-1 and HLS-5 co-expressed, FIG. 5B. The format is cell-based.
Text: as §3, §4

In test [4] the target is T1, Ubc9. In words: BRET assay of HLS-5 and Ubc9 in COS cells. The settings on record: HLS-5 and Ubc9 constructs co-expressed in COS cells. The format is binding. Here is the method: as §2
The interaction between HLS-5 and Ubc9 was characterized further by yeast 2 hybrid assays to define important binding domains. […] To confirm that HLS-5 and Ubc9 were genuine binding partners, the interaction was investigated in mammalian cells using bioluminescence resonance energy transfer (BRET), which is able to detect protein:protein interactions in living cells (Xu et al., 1999, Proc Natl Acad Sci USA, 96, 151-156). […] However, this interaction may well be transient as the two molecules could not be co-immunoprecipitate (data not shown). […]
Background: Bioluminescence resonance energy transfer reports proximity on the nanometre scale.

The next test concerns global SUMOylation. Briefly: Total protein sumoylation by immunoblotting in COS cells co-expressing SUMO-1 and HLS-5. The settings on record: SUMO-1 and HLS-5 co-expressed. The format is cell-based.
Text: as §3, §4

Another test deals with SUMOylated substrate. In words: SUMOylated substrate co-immunoprecipitating with Myc-tagged HLS-5 in COS7 cells. Conditions: HA-tagged SUMO1, in the presence of MG132, FIG. 6A. The format is cell-based. How it is done: (A) COS7 cells co-expressing Myc-tagged HLS-5 or a mutant form of HLS5 lacking its Ring finger (ΔN61) and HA-tagged SUMO1 in the presence or absence of MG132. SUMOylated substrate was detected with an anti-HA antibody and HLS-5 was immunoprecipitated by using a Myc antibodies respectively.
as §1

In another test the test system is SUMO-2. In words: Yeast two-hybrid binding of HLS-5 to SUMO-2. The settings on record: liquid β-galactosidase assay. Here is the method:
(§5) (A) Potential sumoylation sites of HLS-5 are shown. (B) Binding of Hls-5 deletion mutants to full length Sumo-1 was examined in the yeast system by filter assay for β-galactosidase activity. (C) Interaction between Hls-5 and Sumo-1, 2 or 3 was examined using yeast two-hybrid. Binding was assessed using a liquid assay to measure β-galactosidase activity. Samples were measured in triplicate and shown is the mean±standard deviation. (D) Lysates from COS7 cells transfected with Myc-tagged Hls-5, and/or HA-tagged Sumo-1, HA-tagged UBC9, HA-tagged PIAS1 were immunoblotted (IB) with antibodies to Sumo-1 or Myc.
(§6) Since HLS-5 was able to interact with Ubc9 and PIAS1, the possibility that HLS-5 is sumoylated was then examined. Like other RBCC/TRIM family members such as PML (Duprez et al., 1999, J Cell Sci., 112, 381-393; Kamitani et al., 1998, J. Biol. Chem., 273, 26675-26682), HLS-5 has several ΨKxE/D consensus sumoylation sites (FIG. 2a). To determine if HLS-5 was able to bind SUMO-1, the yeast two-hybrid system was employed using several HLS-5 deletion mutants.

The target of test [5] is T2, SUMO-1 (Homo sapiens, UniProt P63165).
T2 construct: expressed in transfected cells; host or cells: yeast (two-hybrid)
T2 sequence (P63165 whole entry, species assumed): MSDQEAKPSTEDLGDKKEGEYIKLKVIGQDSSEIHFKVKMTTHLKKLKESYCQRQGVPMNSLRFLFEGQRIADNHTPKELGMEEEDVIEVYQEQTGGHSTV
Briefly: Yeast two-hybrid binding of HLS-5 to SUMO-1. Here is the method: as §5, §6

The target of test [6] is T3, PIAS1 (Homo sapiens, UniProt O75925).
T3 construct: HA; expressed in transfected cells; host or cells: COS7
T3 sequence (O75925 whole entry, species assumed): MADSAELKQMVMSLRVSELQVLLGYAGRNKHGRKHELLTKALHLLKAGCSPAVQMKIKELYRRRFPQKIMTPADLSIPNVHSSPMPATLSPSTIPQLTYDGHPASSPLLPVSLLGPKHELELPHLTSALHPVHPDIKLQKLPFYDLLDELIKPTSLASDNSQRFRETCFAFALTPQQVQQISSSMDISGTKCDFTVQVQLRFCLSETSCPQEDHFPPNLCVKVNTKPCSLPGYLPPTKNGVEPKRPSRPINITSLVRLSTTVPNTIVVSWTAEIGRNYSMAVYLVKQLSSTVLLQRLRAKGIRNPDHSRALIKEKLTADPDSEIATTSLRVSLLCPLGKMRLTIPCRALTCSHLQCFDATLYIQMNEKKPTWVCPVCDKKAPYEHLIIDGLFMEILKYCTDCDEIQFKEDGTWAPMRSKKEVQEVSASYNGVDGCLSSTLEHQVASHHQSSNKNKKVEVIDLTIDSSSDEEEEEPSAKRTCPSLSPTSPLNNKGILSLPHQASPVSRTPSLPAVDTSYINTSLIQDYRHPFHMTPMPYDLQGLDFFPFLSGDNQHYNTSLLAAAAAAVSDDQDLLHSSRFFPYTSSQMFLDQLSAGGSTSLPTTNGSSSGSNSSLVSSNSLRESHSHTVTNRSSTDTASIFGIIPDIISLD
In words: Co-immunoprecipitation of HLS-5 and PIAS1 in COS cells. The settings on record: when GATA-1 was present. The format is binding. Here is the method:
as §2
As PIAS1 mainly is a nuclear protein (Tan et al., 2000, Mol Endocrinol, 14, 14-26), and HLS-5 is primarily cytoplasmic, the failure of these molecules to interact may be caused by subcellular separation. Since GATA-1 promotes nuclear re-localization of HLS-5 (see below and FIG. 3b) it was included in co-transfections with HLS5 and PIAS1. […] It is postulated that the redistribution of HLS-5 induced by GATA-1 enabled nuclear access and binding to PIAS1 or that GATA-1, HLS-5 and PIAS1 form a protein complex required for this interaction.

Test [7] has as its system PIAS1. In words: Immunoblot of PIAS1 levels in COS cells co-expressing HLS-5 or deletion mutants. The format is cell-based. The settings on record: co-expression with HA-tagged PIAS1, FIG. 5B/5C.
Text: as §3, §4

The subject of the next test is SUMO-3. In words: Yeast two-hybrid binding of HLS-5 to SUMO-3. Conditions: liquid β-galactosidase assay. How it is done:
as §5, §6

Test [8] deals with GATA-1. In words: Co-immunoprecipitation of HLS-5 and GATA-1 in COS cells. The format is binding. The settings on record: with isopeptidase inhibitors NEM and IAA. How it is done: (§7) (B and C) Lysates from COS7 cells transfected with Myc-tagged HLS-5 and/or GATA-1, and/or HA-tagged Sumo-1, and/or HA-tagged PIAS1 were immunoblotted (IB) with antibodies to GATA-1, HA or Myc D) COS7 cells were transfected as shown in the presence of pGL3-M1α firefly luciferase reporter construct and pRN-CMV renilla luciferase construct. Relative GATA-1 activity was determined by dividing firefly activity with renilla activity. Amount of DNA used was 200 ng per transfection (+) unless otherwise shown. Samples were performed in duplicate and shown is the mean±range. Data shown are representative of three independent experiments.
The interaction between GATA-1 and HLS5 was then examined biochemically by transfecting COS cells with myc-tagged HLS-5 and GATA-1, followed by immunoprecipitation and immunoblotting.

Test [9] concerns GATA-1. Briefly: GATA-1 transactivation luciferase reporter assay in COS cells. The format is cell-based. Here is the method:
as §7
The effect of HLS-5 on sumoylated GATA-1 transactivation was then examined using the MIα promoter and luciferase reporter assays. […] These observations contrast with the inhibitory effects of GATA-1 sumoylation on transactivation reported by Collavin et al. (2004, supra). […] These observations are consistent with a modulatory role for HLS5 in sumoylation.
Background: Reporter assays use an easily measured gene product as a stand-in for the process of interest.

Residues, ends and D or L forms follow the SMILES beside them. *: point of attachment. Cbz = O=C(OCc1ccccc1)*

T1 sequence (P63279 whole entry, species assumed): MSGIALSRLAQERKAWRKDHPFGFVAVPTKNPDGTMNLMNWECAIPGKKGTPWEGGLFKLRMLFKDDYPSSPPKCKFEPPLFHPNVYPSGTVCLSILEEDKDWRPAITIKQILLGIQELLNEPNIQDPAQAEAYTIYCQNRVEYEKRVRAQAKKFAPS

As for `CC(C)C[C@@H](C=O)NC(=O)[C@H](CC(C)C)NC(=O)[C@H](CC(C)C)NC(=O)OCc1ccccc1` [MG132] (Cbz-Leu-Leu-Leu-aldehyde), the “translocation of HLS-5 from cytoplasmic granules into the nucleus” value in the test with HLS-5 (COS7 cells) is on record as “translocation was also observed”. Further, the “effect on HLS-5 accumulation” value with HLS-5 (COS7 cells expressing myc-tagged HLS-5, FIG. 3C) is “accumulation of HLS-5”.

Consider “Ubc9: E2 enzyme in the SUMO-1 conjugation pathway”, for which the “apoptosis / cell death caused by HLS5” value in the test with Hela cells is 12 % of cells.

B1: HLS-5: member of the RING finger B-box Coiled-coil (RBCC) protein family; tested by expression from transfected constructs (protein, listed as Homo sapiens)
chain: MERSPDVSPGPSRSFKEELLCAVCYDPFRDAVTLRCGHNFCRGCVSRCWEVQVSPTCPVCKDRASPADLRTNHTLNNLVEKLLREEAEGARWTSYRFSRVCRLHRGQLSLFCLEDKELLCCSCQADPRHQGHRVQPVKDTAHDFRAKCRNMEHALREKAKAFWAMRRSYEAIAKHNQVEAAWLEGRIRQEFDKLREFLRVEEQAILDAMAEETRQKQLLADEKMKQLTEETEVLAHEIERLQMEMKEDDVSFLMKHKSRKRRLFCTMEPEPVQPGMLIDVCKYLGSLQYRVWKKMLASVESVPFSFDPNTAAGWLSVSDDLTSVTNHGYRVQVENPERFSSAPCLLGSRVFSQGSHAWEVALGGLQSWRVGVVRVRQDSGAEGHSHSCYHDTRSGFWYVCRTQGVEGDHCVTSDPATSPLVLAIPRRLRVELECEEGELSFYDAERHCHLYTFHARFGEVRPYFYLGGARGAGPPEPLRICPLHISVKEELDG
Turning to B1, the “association with Ubc9” value with Ubc9 [1] was “able to associate with Ubc9”. Further, the Ubc9 protein level entry with Ubc9 [2] is “reduced the levels of Ubc9”. Besides, the “reduction of the levels of SUMO-1” value with SUMO-1 [3] is given as over 95%. Also, the BRET ratio result in the test with Ubc9 [4] is “positive BRET ratio”. Besides, the overall sumoylation result in the test on global SUMOylation is “reduced”. In the test on SUMOylated substrate, the “SUMOylated substrate detected with anti-HA antibody” value was “SUMOylated substrate detected”. In addition, the “binding to SUMO-2” value in the test on SUMO-2 is given as “neither SUMO-2, nor SUMO-3 bound”. The “interaction with SUMO-1” value with SUMO-1 [5] was “could interact with SUMO-1”. The “co-immunoprecipitation with PIAS1” value in the test with PIAS1 [6] was “could co-immunoprecipitate”. Besides, the PIAS1 protein level entry in the test with PIAS1 [7] was “almost complete elimination of PIAS1”. For the same molecule, in the test on SUMO-3, the “binding to SUMO-3” value is reported as “neither SUMO-2, nor SUMO-3 bound”. The “co-immunoprecipitation with GATA-1” value with GATA-1 [8] is listed as “GATA-1 was detected in HLS-5 immunoprecipitates”. For the same molecule, the “apoptosis / cell death caused by HLS5” value in the test with Hela cells is reported as 60 % of cells. Also, the GATA-1 activity entry in the test on GATA-1 [9] (co-expression with SUMO-1) is “decreased GATA-1 activity”. Further, the GATA-1 transactivation entry with GATA-1 [9] (in the presence of both SUMO-1 and PIAS1) was “suppressed GATA-1 transactivation”.

The values above are taken from patent US20100048450A1, “Sumoylation Control Agent and Uses Thereof” (priority 2005, published 2010).
